The results in this text go back to patent US20240376190A1 (Chugai, published 2024).

The term Kd denotes the concentration at which binding is half-saturated. A low value points to tighter binding. What is called koff is the rate constant with which the complex falls apart. Higher therefore signals fast dissociation. A word on the kon: it is the second-order rate constant of association.

Test [1] has as its target T1, FLAG-tagged mouse latent TGF-beta 1 (mouse, UniProt P04202 34-390).
T1 construct: Co-expressed with human furin; also called mouse latent TGF-beta 1 (SLC); mSLC
As to the kind of experiment: SPR (BIACORE), antibody captured on anti-human Fc, antigen as analyte, pH 7.4. Background: SPR reads the build-up and loss of mass on a sensor chip optically.

In test [2] the target is T2, FLAG-tagged human latent TGF-beta 1 (human, UniProt P01137 34-390).
T2 construct: Co-expressed with human furin, purified on anti-FLAG resin and by gel filtration; also called human latent TGF-beta 1 (SLC); hSLC
The test is described as above.

In test [3] the target is T1, FLAG-tagged mouse latent TGF-beta 1. As to the kind of experiment: SPR (BIACORE 8K), antibody captured on anti-human Fc, antigen as analyte, pH 7.4.
Protocol: (§1) A mouse anti-human Fc (GE Healthcare) was immobilized onto all flow cells of a CM5 sensor chip using amine coupling kit (GE Healthcare). Antibodies were captured onto the anti-human Fc sensor surfaces to around 20RU capture level, then recombinant latent TGF-beta 1 of human, cyno, and mouse was injected over the flow cell. All antibodies and analytes were prepared in ACES pH 7.4 containing 20 mM ACES, 150 mM NaCl, 0.05% Tween 20, 0.005% NaN₃. Sensor surface was regenerated each cycle with 3M MgCl₂.
In test [4] the target is T2, FLAG-tagged human latent TGF-beta 1. The test is described as above.
Protocol: as §1
Test [5] concerns the target T1, FLAG-tagged mouse latent TGF-beta 1. As to the kind of experiment: SPR (BIACORE 8K), antibody captured on anti-human Fc, antigen as analyte, pH 5.8.
For test [6], the target named is T2, FLAG-tagged human latent TGF-beta 1. The test is described as above.

B1: hT0947AE20-SG181 (antibody, human IgG1, kappa)
heavy: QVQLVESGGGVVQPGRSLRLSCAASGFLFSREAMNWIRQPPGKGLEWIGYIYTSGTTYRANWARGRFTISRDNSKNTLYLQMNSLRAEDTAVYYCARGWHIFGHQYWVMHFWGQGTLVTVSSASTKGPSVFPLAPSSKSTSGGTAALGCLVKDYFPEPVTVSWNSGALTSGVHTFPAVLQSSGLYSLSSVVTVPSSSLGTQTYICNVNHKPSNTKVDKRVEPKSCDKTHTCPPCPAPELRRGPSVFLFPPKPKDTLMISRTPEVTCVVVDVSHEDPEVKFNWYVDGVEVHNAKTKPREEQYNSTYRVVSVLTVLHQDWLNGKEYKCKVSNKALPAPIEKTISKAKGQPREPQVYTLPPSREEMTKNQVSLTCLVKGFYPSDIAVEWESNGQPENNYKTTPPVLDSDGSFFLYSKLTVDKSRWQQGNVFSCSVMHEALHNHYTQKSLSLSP
light: DIQMTQSPSSLSASVGDRVTITCQASQSISTYEAWYQQKPGQPPKLLIYAASTLESGVPSRFSGSGSGTDFTLTISSLQPEDFATYYCQSYSDGDSVIFGQGTKVEIKRTVAAPSVFIFPPSDEQLKSGTASVVCLLNNFYPREAKVQWKVDNALQSGNSQESVTEQDSKDSTYSLSSTLTLSKADYEKHKVYACEVTHQGLSSPVTKSFNRGEC
notes: Human IgG1
With B1, in test [1], the Kd was determined as 4.39 nM, the koff was 0.00294 s⁻¹ and the kon turned out to be 670000 M⁻¹ s⁻¹. For the same molecule, in test [2], the Kd is 2.95 nM, the off-rate (koff) is 0.00111 s⁻¹ and the kon stood at 377000 M⁻¹ s⁻¹.

B2: hT0947AE07-SG181 (antibody, human IgG1, kappa)
heavy: not shown
light: DIQMTQSPSSLSASVGDRVTITCQASQSISTYLAWYQQKPGQPPKLLIYAASTLESGVPSRFSGSGSGTDFTLTISSLQPEDFATYYCQSYSDGDSVGFGQGTKVEIKRTVAAPSVFIFPPSDEQLKSGTASVVCLLNNFYPREAKVQWKVDNALQSGNSQESVTEQDSKDSTYSLSSTLTLSKADYEKHKVYACEVTHQGLSSPVTKSFNRGEC
notes: Human IgG1; Heavy chain = VH + CH, light chain = VL + CL; also called non-pH dependent anti-human latent TGF-beta 1 antibody
As to B2, the results for the Kd in test [1] and in test [2] were 1.04 nM and 1.02 nM, respectively.

B3: hT0947AE24-SG181 (antibody, human IgG1, kappa, V domains shown)
VH: QVQLVESGGGVVQPGRSLRLSCAASGFHFSSEAMNWIRQPPGKGLEWIGYIYTSGTTYRANWARGRFTISRDNSKNTLYLQMNSLRAEDTAVYYCARGWHIFGHHYWVMHFWGQGTLVTVSS
VL: DIQMTQSPSSLSASVGDRVTITCQASQSISTYLAWYQQKPGQPPKLLIYAASTLEWGVPSRFSGSGSGTDFTLTISSLQPEDFATYYCQSYSDGDSVGFGQGTKVEIKR
notes: Human IgG1; Heavy chain = VH + CH, light chain = VL + CL
In test [1], B3 registered a Kd of 7.03 nM, a koff of 0.00441 s⁻¹ and an association rate constant (kon) of 627000 M⁻¹ s⁻¹. Moreover, in test [2], the Kd is 2.55 nM, the koff amounted to 0.001 s⁻¹ and the kon turned out to be 393000 M⁻¹ s⁻¹.

B4: hT0947AE22-SG181 (antibody, human IgG1, kappa, V domains shown)
VH: QVQLVESGGGVVQPGRSLRLSCAASGFHFSREAMNWIRQPPGKGLEWIGYIYTSGTTYRANWARGRFTISRDNSKNTLYLQMNSLRAEDTAVYYCARGWHIFGHHYWVMHFWGQGTLVTVSS
VL: DIQMTQSPSSLSASVGDRVTITCQASQSISTYLAWYQQKPGQPPKLLIYAASTLESGVPSRFSGSGSGTDFTLTISSLQPEDFATYYCQSYSDGDSVIFGQGTKVEIKR
notes: as for B3
As for B4, in test [1], the Kd was determined as 5.76 nM, the koff is 0.00376 s⁻¹ and the kon amounted to 653000 M⁻¹ s⁻¹. In test [2], binding was characterised by a dissociation constant (Kd) of 3.6 nM, the koff was 0.00124 s⁻¹ and the kon was determined as 344000 M⁻¹ s⁻¹.

B5: T0947H0053H0156-SG181/T0947L001L0049-SK1 (antibody, human IgG1, kappa, V domains shown)
VH: QVQLVESGGGVVQPGRSLRLSCAASGFTFSSEAMNWIRQPPGKGLEWIGYIYTSGTTYRANWARGRFTISRDNSKNTLYLQMNSLRAEDTAVYYCARGTHIYDHYYWVHHLWGQGTLVTVSS
VL: DIQMTQSPSSLSASVGDRVTITCQASQSISTYLAWYQQKPGQPPKLLIYAASTLESGVPSRFSGSGSGTDFTLTISSLQPEDFATYYCQSYSDGDSVGFGQGTKVEIKR
notes: Human IgG1; also called the pH dependent antibody; parent pH-dependent anti human latent TGF-beta 1 antibody
B5 gave a Kd in test [1] of 16.6 nM. This counts as double-digit nanomolar.

B6: hT0947AE34-SG191 (antibody, human IgG1, V domains shown)
VH: QVQLVESGGGVVQPGRSLRLSCAASGFHFSSEAMNWIRQPPGKGLEWIGYIYTSGTTYRANWARGRFTISRDNSKNTLYLQMNSLRAEDTAVYYCARGWHIFDHHYWVMHAWGQGTLVTVSS
VL: DIQMTQSPSSLSASVGDRVTITCQASQSISTYLAWYQQKPGQPPKLLIYAASTLEYGVPSRFSGSGSGTDFTLTISSLQPEDFATYYCQSYSDGDSVIFGQGTKVEIKR
notes: Human IgG1, SG191; also called hT0497AE34-SG191
For B6, the Kd in test [3] came out at 3.67 nM; in test [4], 2.29 nM; in test [5], 346 nM; in test [6], 309 nM.

B7: hT0947AE25-SG181 (antibody, human IgG1, kappa, V domains shown)
VH: QVQLVESGGGVVQPGRSLRLSCAASGFHFSNEAMNWIRQPPGKGLEWIGYIYTSGTTYRSNWARGRFTISRDNSKNTLYLQMNSLRAEDTAVYYCARGWHIFGHQYWVMHFWGQGTLVTVSS
VL: DIQMTQSPSSLSASVGDRVTITCQASQSISTYEAWYQQKPGQPPKLLIYAASTLESGVPSRFSGSGSGTDFTLTISSLQPEDFATYYCQSYSDGDSVGFGQGTKVEIKR
notes: as for B3
In test [1], B7 showed a Kd of 4.48 nM, a koff of 0.0353 s⁻¹ and a kon of 7.89e+06 M⁻¹ s⁻¹. In test [2], the Kd was found to be 3.88 nM, the koff was 0.00152 s⁻¹ and the on-rate (kon) was 391000 M⁻¹ s⁻¹.

B8: hT0947AE26-SG181 (antibody, human IgG1, kappa, V domains shown)
VH: QVQLVESGGGVVQPGRSLRLSCAASGFHFSNEAMNWIRQPPGKGLEWIGYIYTSGTTYRSNWARGRFTISRDNSKNTLYLQMNSLRAEDTAVYYCARGWHIFGHQYWVMHFWGQGTLVTVSS
VL: DIQMTQSPSSLSASVGDRVTITCQASQSISTYEAWYQQKPGQPPKLLIYAASTLESGVPSRFSGSGSGTDFTLTISSLQPEDFATYYCQSYSDGDSVKFGQGTKVEIKR
notes: as for B3
In test [1], B8 gave a Kd of 5.34 nM, a koff of 0.00864 s⁻¹ and a kon of 1.62e+06 M⁻¹ s⁻¹. In test [2], this molecule registered a Kd of 3.33 nM, a koff of 0.0012 s⁻¹ and a kon of 361000 M⁻¹ s⁻¹.

B9: hT0947AE23-SG181 (antibody, human IgG1, kappa, V domains shown)
VH: QVQLVESGGGVVQPGRSLRLSCAASGFHFSREAMNWIRQPPGKGLEWIGYIYTSGTTYRANWARGRFTISRDNSKNTLYLQMNSLRAEDTAVYYCARGTHLFGHHYWVMHSWGQGTLVTVSS
VL: DIQMTQSPSSLSASVGDRVTITCQASQSISTYLAWYQQKPGQPPKLLIYAASTLEYGVPSRFSGSGSGTDFTLTISSLQPEDFATYYCQSYSDGDSVVFGQGTKVEIKR
notes: as for B3
In test [1], B9 gave a Kd of 4.19 nM, a koff of 0.00187 s⁻¹ and a kon of 445000 M⁻¹ s⁻¹. In test [2], this molecule registered a Kd of 3.25 nM, a koff of 0.00108 s⁻¹ and a kon of 333000 M⁻¹ s⁻¹.

B10: hT0947AE27-SG191 (antibody, human IgG1, V domains shown)
VH: QVQLVESGGGVVQPGRSLRLSCAASGFHFSNEAMNWIRQPPGKGLEWIGYIYTTGTTYRANWARGRFTISRDNSKNTLYLQMNSLRAEDTAVYYCARGWHIFGHHYWVMHFWGQGTLVTVSS
VL: DIQMTQSPSSLSASVGDRVTITCQASQRISTYVAWYQQKPGQPPKLLIYAASTLESGVPSRFSGSGSGTDFTLTISSLQPEDFATYYCQSYSDGDSVIFGQGTKVEIKR
notes: Human IgG1, SG191; also called hT0497AE27-SG191
As to B10, the dissociation constant Kd in test [3] amounted to 5.43 nM; in test [4], 3.93 nM; in test [5], 803 nM; in test [6], 482 nM.

B11: hT0947AE37-SG191 (antibody, human IgG1, V domains shown)
VH: QVQLVESGGGVVQPGRSLRLSCAASGFHFSSEAMNWIRQPPGKGLEWIGYIYVSGTTYRADWARGRFTISRDNSKNTLYLQMNSLRAEDTAVYYCARGWHIFGHHYWVMHAWGQGTLVTVSS
VL: DIQMTQSPSSLSASVGDRVTITCQASESISTYLAWYQQKPGQPPKLLIYAASTLESGVPSRFSGSGSGTDFTLTISSLQPEDFATYYCQSYSDGDSVIFGQGTKVEIKR
notes: Human IgG1, SG191; also called hT0497AE37-SG191
Take B11: the Kd in test [3] stood at 3.61 nM; in test [4], 1.32 nM; in test [5], 1570 nM; in test [6], 222 nM.
